From patent US20160264664A1 (Ablynx, published 2016) come the findings set out here.

Changes are numbered by the printed parent chain.

In assay [1] the target is T1, mouse P2X7 (mouse, UniProt Q9Z1M0 1-595).
T1 construct: on transfected CHO or Hek293 cells, or endogenous on Yac-1 cells; also called mP2X7; mouse purinoceptor P2X7
T1 sequence: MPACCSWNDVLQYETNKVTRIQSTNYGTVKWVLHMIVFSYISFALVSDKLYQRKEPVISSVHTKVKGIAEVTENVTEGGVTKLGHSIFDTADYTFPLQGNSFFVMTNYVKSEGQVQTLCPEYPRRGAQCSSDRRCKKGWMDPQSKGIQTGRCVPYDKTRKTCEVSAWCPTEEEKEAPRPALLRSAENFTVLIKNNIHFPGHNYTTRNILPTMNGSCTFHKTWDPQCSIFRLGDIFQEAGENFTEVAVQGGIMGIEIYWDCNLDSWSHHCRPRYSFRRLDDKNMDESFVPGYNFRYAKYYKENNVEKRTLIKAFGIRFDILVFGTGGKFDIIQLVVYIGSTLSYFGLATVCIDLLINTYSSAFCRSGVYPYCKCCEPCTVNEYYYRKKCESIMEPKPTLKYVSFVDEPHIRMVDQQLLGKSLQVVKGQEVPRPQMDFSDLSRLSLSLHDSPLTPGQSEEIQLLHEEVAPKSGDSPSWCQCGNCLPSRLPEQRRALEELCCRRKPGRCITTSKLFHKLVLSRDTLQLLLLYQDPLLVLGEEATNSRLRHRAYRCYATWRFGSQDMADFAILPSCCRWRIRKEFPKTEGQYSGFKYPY
Nature of the assay: Table A-1 'P2X7 function'; screening on mP2X7-expressing cells.

Assay [2] has as its target T1, mouse P2X7. Nature of the assay: flow cytometry, periplasmic extract pre-incubated with anti-myc-FITC, on mP2X7-Hek293 cells.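 Further: periplasmic extract diluted 10-fold and premixed 45 min at 4 °C with FITC anti-myc antibody, giving pseudo-bivalent Nanobodies, before binding to the cells.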 In general terms: A flow cytometer gives signals particle by particle.
Protocol: Ten-fold diluted PE were pre-incubation with 0.5 μg anti-myc FITC-conjugated antibodies (AbD Serotec, cat no. MCA2200F) (creating pseudo-bivalent Nanobodies in order to increase binding strength) in 0.1 ml PBS/10% FCS for 45 minutes at 4° C. […] Alternatively, sequential staining of 10-fold diluted PE with anti-myc FITC-conjugated antibodies was done after incubation with the cells.
Assay [3] concerns the target T1, mouse P2X7. Nature of the assay: phage ELISA on fixed mP2X7-CHO vs untransfected CHO cells.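 Further: phage culture supernatant diluted 10-fold, applied for 1 h to paraformaldehyde-fixed, BSA-blocked cells in 96-well plates, with bound phage read via HRP-linked anti-M13 antibody.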 Background: In an ELISA, binding on a coated surface is turned into a signal by an enzyme label.
Protocol: (§1) Sub-confluent cells were rinsed with PBS and fixed using 4% paraformaldehyde in PBS for 10 minutes at RT. Fixed cells were washed three times with PBS, and blocked with 2% BSA in PBS for 2 hours. Following blocking, 10-fold diluted culture supernatant containing phage was added and incubated for 1 hour. Cell-bound phage was detected via mouse anti-M13-HRP-conjugate (GE Healthcare, Cat nr. E2886). Rat mAb Hano43 was used as positive control.
In assay [4] the target is T1, mouse P2X7. Nature of the assay: phage ELISA, mP2X7-CHO vs control CHO cells.
Protocol: as §1
A further assay concerns the target T2, human P2X7 (human, UniProt Q99572 1-595).
T2 construct: on transfected Hek293 cells; also called hP2X7
T2 sequence: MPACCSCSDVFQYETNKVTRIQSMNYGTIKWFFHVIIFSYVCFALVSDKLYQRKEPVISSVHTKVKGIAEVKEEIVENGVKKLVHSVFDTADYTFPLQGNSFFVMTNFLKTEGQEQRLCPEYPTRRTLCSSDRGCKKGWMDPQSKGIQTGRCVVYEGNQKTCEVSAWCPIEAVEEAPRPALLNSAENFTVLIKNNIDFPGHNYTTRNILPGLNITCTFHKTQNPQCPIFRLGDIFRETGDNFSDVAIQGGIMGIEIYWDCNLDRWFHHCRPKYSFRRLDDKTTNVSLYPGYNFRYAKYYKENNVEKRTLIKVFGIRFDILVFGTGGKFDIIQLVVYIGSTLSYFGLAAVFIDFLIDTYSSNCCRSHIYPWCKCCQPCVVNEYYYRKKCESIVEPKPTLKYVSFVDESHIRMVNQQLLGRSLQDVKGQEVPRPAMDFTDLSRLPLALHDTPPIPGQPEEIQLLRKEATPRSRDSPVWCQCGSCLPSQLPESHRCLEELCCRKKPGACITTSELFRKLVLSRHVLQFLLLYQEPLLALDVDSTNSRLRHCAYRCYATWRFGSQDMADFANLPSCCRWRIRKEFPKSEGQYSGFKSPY
As to the kind of experiment: flow cytometry, Nanobody pre-incubated with anti-Myc-FITC.

Another assay has as its target T3, human P2X4 (human, UniProt Q99571 1-388).
T3 construct: whole, on cells; also called hP2X4
T3 sequence (looked up): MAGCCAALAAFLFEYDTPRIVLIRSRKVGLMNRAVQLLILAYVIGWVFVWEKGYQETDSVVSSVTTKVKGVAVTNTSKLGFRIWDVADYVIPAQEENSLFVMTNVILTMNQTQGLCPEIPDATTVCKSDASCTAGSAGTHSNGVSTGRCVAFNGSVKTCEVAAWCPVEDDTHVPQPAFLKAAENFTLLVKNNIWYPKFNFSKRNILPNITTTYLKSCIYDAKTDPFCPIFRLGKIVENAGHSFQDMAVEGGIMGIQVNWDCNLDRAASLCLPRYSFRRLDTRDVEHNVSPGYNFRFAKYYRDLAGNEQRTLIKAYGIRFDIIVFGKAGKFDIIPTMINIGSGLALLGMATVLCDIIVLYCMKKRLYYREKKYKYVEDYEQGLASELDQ
The assay is described as above.

For assay [5], the target named is T1, mouse P2X7. Nature of the assay: cell-based or functional assay.

B1: P2X7PMP20H9 (VHH)
VHH: EVQLVESGGRVMQTGGSLRLSCAASGHTFNDYSMGWFRQAPGKELEFLAGINWSGMSTWYADSVKDRFTISRDNNKNTVFLQMNSLEPGDTAVYYCAARQWISTIILTAPSQYDYWGQGTQVTVSS
notes: family 24; on phage or c-myc/His6-tagged in assays
As for B1, in the assay with mouse P2X7 [1], the binding result was “binds”.

B2: P2X7PMP5F1 (VHH)
VHH: EVQLVESGGGLVQAGGSLRLSCAASERTYSMGWFRQAPGKEREFVAGSGWDGIPTRYADSVKGRFTISRDNAKNTVSLQMSGLKPEDTAIYYCATGTSVYHYQYWGQGTQVTVSS
notes: family 3; on phage or c-myc/His6-tagged in assays
On to B2, for which the binding result with mouse P2X7 [1] is given as “binds”.

B3: P2X7PMP11D3 (VHH)
VHH: B2 VHH with A14P
notes: as for B2
Regarding B3, the binding result in the assay with mouse P2X7 [1] is on record as “binds”.

B4: P2X7PMP13B2 (VHH)
VHH: B2 VHH with T75A
notes: as for B2
B4: in the assay with mouse P2X7 [1], the binding result is reported as “binds”.

B5: P2X7PMP5B1 (VHH)
VHH: B2 VHH with W105R
notes: as for B2
On to B5, for which the binding result in the assay with mouse P2X7 [1] is “binds”.

B6: P2X7PMP7F3 (VHH)
VHH: B2 VHH with G8R, G63S
notes: as for B2
In the case of B6, the binding result with mouse P2X7 [1] was “binds”.

B7: P2X7PMP11A1 (VHH)
VHH: B2 VHH with M31V, I53T
notes: as for B2
For B7, the binding result with mouse P2X7 [1] is listed as “binds”.

B8: P2X7PMP7F1 (VHH)
VHH: B2 VHH with N74S
notes: as for B2
Regarding B8, the binding result with mouse P2X7 [1] was “binds”.

B9: P2X7PMP11G1 (VHH)
VHH: B2 VHH with Q36R
notes: as for B2
On to B9, for which the binding result with mouse P2X7 [1] is on record as “binds”.

B10: P2X7PMP7D8 (VHH)
VHH: EVQLVESGGGLVQPGGSLRLSCAASGLTLEYYNIGWFRQAPGKEREGVACIDWTEGSTFYVDSVKGRFTISTDNAKNTVYLHMNSLEPEDTAVYYCAAGWGRVITVQHMCADRSLFTSWGQGTQVTVSS
notes: family 13; on phage or c-myc/His6-tagged in assays
B10: in the assay with mouse P2X7 [1], the binding result is “binds”.

B11: P2X7PMP18C1 (VHH)
VHH: EVQLVESGGDLVQPGGSLRLSCVASGFALEEHAIGWFRQAPGKEREGVSLSSYLGAAYYATSVKGRFTISRDNAKNTVTLQMNSLKPEDTAVYYCARGHFTYDDGRITIRSVDYWGKGTLVTVSS
notes: family 25; on phage or c-myc/His6-tagged in assays
With B11, in the assay with mouse P2X7 [2], the “MFI FACS (pre-Myc incubation)” value is 63 MFI. For the same molecule, the “Fold Cho P2X7/wt (phage ELISA)” value in the assay with mouse P2X7 [3] is 18 fold. In the assay with mouse P2X7 [4], the “absorption ratio (ELISA)” value amounted to 18 ratio. The binding result with human P2X7 and with human P2X4 was “no binding (tested: 147 nM)” throughout.

B12: P2X7PMP18A7 (VHH)
VHH: B11 VHH with L54V, A57V, T79Y, T108S, Y114H
notes: as for B11
Consider B12, for which the “MFI FACS (pre-Myc incubation)” value in the assay with mouse P2X7 [2] came to 69 MFI. Besides, the “Fold Cho P2X7/wt (phage ELISA)” value in the assay with mouse P2X7 [3] is 14 fold. Besides, the “absorption ratio (ELISA)” value with mouse P2X7 [4] came to 14 ratio. The binding result with human P2X7 and in the assay with human P2X4 was “no binding (tested: 147 nM)” in each case.

B13: P2X7PMP8F5 (VHH)
VHH: EVQLVKSGGGLVQAGGSLRLSCAASGSFFRVNNMAWYRQAPGKQRELVADITRGDRTNYADSVNGRFTISRDNVRNTVYLQMNGLKPEDTAVYYCYARIELGPLVPRDYWGQGTQVTVSS
notes: family 5, 2; on phage or c-myc/His6-tagged in assays
Take B13: the “MFI FACS (pre-Myc incubation)” value with mouse P2X7 [2] stood at 143 MFI. In the assay with mouse P2X7 [3], the “Fold Cho P2X7/wt (phage ELISA)” value stood at 16 fold. For the same molecule, in the assay with mouse P2X7 [4], the “absorption ratio (ELISA)” value came to 16 ratio. Besides, in the assay with mouse P2X7 [5], the “ATP IC50 by 2 uM NB (head prints 'mM'; ligand titration at fixed Nanobody, CD62L shedding, Yac-1 cells)” value was found to be 0.171 mM; the “IC50 (nM) against 20 uM NAD (CD62L shedding, Yac-1 cells)” value was determined as 579 nM; the “IC50 (nM) against 100 uM ATP (CD62L shedding, Yac-1 cells)” value was found to be 350 nM. In addition, in the assay with human P2X7, the binding result was “no binding (tested: 147 nM)”. Further, the binding result in the assay with human P2X4 is “no binding (tested: 147 nM)”.

B14: P2X7PMP1G6 (VHH)
VHH: EVQLVESGGGLVQAGGSLRLSCAASPGAFSSFNMGWFRQTPGKEREFVAATSWSDISTYYADSVKGRFTISRDNAKNTVTLEMNSLKPEDTAVYYCAAGYYRGGYLGYRLTLEGSYDVWGQGTQVTVSS
notes: family 15; on phage or c-myc/His6-tagged in assays
For the molecule B14, in the assay with mouse P2X7 [2], the “MFI FACS (pre-Myc incubation)” value was 11 MFI. Also, the “Fold Cho P2X7/wt (phage ELISA)” value in the assay with mouse P2X7 [3] was 12 fold. Also, in the assay with mouse P2X7 [4], the “absorption ratio (ELISA)” value was 12 ratio. Further, the binding result with human P2X7 and with human P2X4 was “no binding (tested: 147 nM)” each time.

B15: P2X7PMP16D9 (VHH)
VHH: B14 VHH with A28T
notes: as for B14
For the molecule B15, the “MFI FACS (pre-Myc incubation)” value with mouse P2X7 [2] amounted to 53 MFI. Moreover, the “Fold Cho P2X7/wt (phage ELISA)” value in the assay with mouse P2X7 [3] was 7 fold. The “absorption ratio (ELISA)” value with mouse P2X7 [4] is 7 ratio. For the same molecule, the binding result with human P2X7 and with human P2X4 was “no binding (tested: 147 nM)” throughout.

B16: P2X7PMP7F9 (VHH)
VHH: EVQLVESGGGLVQAGASLRVSCAASARTGSYTMGWFRQAPGKEREFVSTISWNGASTVYADSVKGRFTISRDNAKNTVSLQMNSLKPEDTAVYYCAGSISSYSSRWQDDYEYWGQGTQVTVSS
notes: family 9; on phage or c-myc/His6-tagged in assays
For the molecule B16, in the assay with mouse P2X7 [1], the binding result is “binds”.

B17: P2X7PMP1A8 (VHH)
VHH: EVQLVESGGGLVQTGGSLRLSCAASGFTLDDYAIAWFRQAPGKEREGVSILSSIGKTFYADSVKDRFSITADGAKTTVFLQMNSLKPGDTAIYYCVAGHFVYNDGAISLNTARGSGFWGQGAQVTVSS
notes: family 2; on phage or c-myc/His6-tagged in assays
As to B17, the “MFI FACS (pre-Myc incubation)” value with mouse P2X7 [2] worked out at 18 MFI. In addition, the “Fold Cho P2X7/wt (phage ELISA)” value in the assay with mouse P2X7 [3] came out at 20 fold. For the same molecule, the “absorption ratio (ELISA)” value with mouse P2X7 [4] is 21 ratio. The binding result in the assay with human P2X7 and with human P2X4 was “no binding (tested: 147 nM)” throughout.

B18: P2X7PMP20C9 (VHH)
VHH: B17 VHH with V63A, G88E, A122T
notes: as for B17
Take B18: the “MFI FACS (pre-Myc incubation)” value with mouse P2X7 [2] was 97 MFI. For the same molecule, the “Fold Cho P2X7/wt (phage ELISA)” value with mouse P2X7 [3] turned out to be 11 fold. Besides, in the assay with mouse P2X7 [4], the “absorption ratio (ELISA)” value amounted to 11 ratio. Further, the binding result with human P2X7 and with human P2X4 was “no binding (tested: 147 nM)” throughout.

B19: P2X7PMP4G6 (VHH)
VHH: EVQLVESGGDVVQAGGSLRLSCLASGFTFDDYAIGWFRQAPGKEREGISCISSTGNVFYADSVKGRFTISSDKEKNTLYLQMNSLKPEDTAVYHCAAGHFTVDSGKVLLRTDVSSWGQGTQVTVSS
notes: family 1; on phage or c-myc/His6-tagged in assays
Take B19: the binding result with mouse P2X7 [1] was “binds”.

B20: P2X7PMP16H8 (VHH)
VHH: B19 VHH with F67L, V113I
notes: as for B19
As to B20, the binding result with mouse P2X7 [1] is listed as “binds”.

B21: P2X7PMP20E8 (VHH)
VHH: B19 VHH with E88G, V113I
notes: as for B19
As for B21, the binding result with mouse P2X7 [1] is given as “binds”.
